Source: US20250145694A1 (GUANGDONG FEIPENG BIOLOGICAL, published 2025)

B1: Mutation 1-1 (antibody)
heavy: EVQMVESGGGLLKPGGSLKLSCAASGFTFSNYAMSWVRQTPEKRLEWVATISSGGSYSFYPDSVKGRFTISRDNAKNTLYLQMLSLRSEDTAMYYCARRDNYYGSSFMDYWGQGSSVTVSSAKTTPPSVYPLAPGSAAQTNSMVTLGCLVKGYFPEPVTVTWNSGSLSSGVHTFPAVLQSDLYTLSSSVTVPSSTWPSQTVTCNVAHPASSTKVDKKIVPRDCGCKPCICTVPEVSSVFIFPPKPKDVLTITLTPKVTCVVVDISKDDPEVQFSWFVDDVEVHTAQTKPREEQFNSTFRSVSELPIMHQDWLNGKEFKCRVNSAAFPAPIEKTISKTKGRPKAPQVYTIPPPKEQMAKDKVSLTCMITNFFPEDITVEWQWNGQPAENYKNTQPIMDTDGSYFVYSKLNVQKSNWEAGNTFTCSVLHEGLHNHHTEKSLSHSPG
light: DIQMTQTSSSLSASLGDRVTISCRASQEITNYLNWYQQKPDGTIKLLIYYTSRIHSGVSSRFSGSGSGTDYSLTISNLEQEDIATYFCQQGHTLPLTFDTGTKLELKRADAAPTVSIFPPSSEQLTSGGASVVCFLNNFYPKDINVKWKIDGSERQNGVLNSWTDQDSKDSTYSMSSTLTLTKDEYERHNSYTCEATHKTSTSPIVKSFNRNEC
notes: assembled FR/CDR/constant
B2: Mutation 1-6 (antibody)
heavy: EVQMVESGGGLLKPGGSLKLSCAASGFTYSNYAMSWVRQTPEKRLEWVATISSGGSYSFYPDSVKGRFTISRDNAKNTLYLQMLSLRSEDTAMYYCARRDNYYGSSFMDYWGQGSSVTVSSAKTTPPSVYPLAPGSAAQTNSMVTLGCLVKGYFPEPVTVTWNSGSLSSGVHTFPAVLQSDLYTLSSSVTVPSSTWPSQTVTCNVAHPASSTKVDKKIVPRDCGCKPCICTVPEVSSVFIFPPKPKDVLTITLTPKVTCVVVDISKDDPEVQFSWFVDDVEVHTAQTKPREEQFNSTFRSVSELPIMHQDWLNGKEFKCRVNSAAFPAPIEKTISKTKGRPKAPQVYTIPPPKEQMAKDKVSLTCMITNFFPEDITVEWQWNGQPAENYKNTQPIMDTDGSYFVYSKLNVQKSNWEAGNTFTCSVLHEGLHNHHTEKSLSHSPG
light: DIQMTQTSSSLSASLGDRVTISCRASQDITNYLNWYQQKPDGTIKLLIYYTSRLHSGVSSRFSGSGSGTDYSLTISNLEQEDIATYFCQQGNTIPLTFDTGTKLELKRADAAPTVSIFPPSSEQLTSGGASVVCFLNNFYPKDINVKWKIDGSERQNGVLNSWTDQDSKDSTYSMSSTLTLTKDEYERHNSYTCEATHKTSTSPIVKSFNRNEC
notes: assembled FR/CDR/constant
B3: Mutation 1-5 (antibody)
heavy: EVQMVESGGGLLKPGGSLKLSCAASGFTFSNYAMSWVRQTPEKRLEWVATISSGGSYSFYPDSVKGRFTISRDNAKNTLYLQMLSLRSEDTAMYYCARRDNYFGSSFMDYWGQGSSVTVSSAKTTPPSVYPLAPGSAAQTNSMVTLGCLVKGYFPEPVTVTWNSGSLSSGVHTFPAVLQSDLYTLSSSVTVPSSTWPSQTVTCNVAHPASSTKVDKKIVPRDCGCKPCICTVPEVSSVFIFPPKPKDVLTITLTPKVTCVVVDISKDDPEVQFSWFVDDVEVHTAQTKPREEQFNSTFRSVSELPIMHQDWLNGKEFKCRVNSAAFPAPIEKTISKTKGRPKAPQVYTIPPPKEQMAKDKVSLTCMITNFFPEDITVEWQWNGQPAENYKNTQPIMDTDGSYFVYSKLNVQKSNWEAGNTFTCSVLHEGLHNHHTEKSLSHSPG
light: DIQMTQTSSSLSASLGDRVTISCRASQEITNYLNWYQQKPDGTIKLLIYYTSRIHSGVSSRFSGSGSGTDYSLTISNLEQEDIATYFCQQGHTLPLTFDTGTKLELKRADAAPTVSIFPPSSEQLTSGGASVVCFLNNFYPKDINVKWKIDGSERQNGVLNSWTDQDSKDSTYSMSSTLTLTKDEYERHNSYTCEATHKTSTSPIVKSFNRNEC
notes: assembled FR/CDR/constant
B4: Mutation 1-4 (antibody)
heavy: EVQMVESGGGLLKPGGSLKLSCAASGFTYSNYAMSWVRQTPEKRLEWVATISSGGSYSYYPDSVKGRFTISRDNAKNTLYLQMLSLRSEDTAMYYCARRDNYFGSTFMDYWGQGSSVTVSSAKTTPPSVYPLAPGSAAQTNSMVTLGCLVKGYFPEPVTVTWNSGSLSSGVHTFPAVLQSDLYTLSSSVTVPSSTWPSQTVTCNVAHPASSTKVDKKIVPRDCGCKPCICTVPEVSSVFIFPPKPKDVLTITLTPKVTCVVVDISKDDPEVQFSWFVDDVEVHTAQTKPREEQFNSTFRSVSELPIMHQDWLNGKEFKCRVNSAAFPAPIEKTISKTKGRPKAPQVYTIPPPKEQMAKDKVSLTCMITNFFPEDITVEWQWNGQPAENYKNTQPIMDTDGSYFVYSKLNVQKSNWEAGNTFTCSVLHEGLHNHHTEKSLSHSPG
light: DIQMTQTSSSLSASLGDRVTISCRASQEITNYLNWYQQKPDGTIKLLIYYTSRIHSGVSSRFSGSGSGTDYSLTISNLEQEDIATYFCQQGNTLPLTFDTGTKLELKRADAAPTVSIFPPSSEQLTSGGASVVCFLNNFYPKDINVKWKIDGSERQNGVLNSWTDQDSKDSTYSMSSTLTLTKDEYERHNSYTCEATHKTSTSPIVKSFNRNEC
notes: assembled FR/CDR/constant; Same printed sites as Mutation 1-40
B5: Mutation 1-8 (antibody)
heavy: EVQMVESGGGLLKPGGSLKLSCAASGFTYSNYAMSWVRQTPEKRLEWVATISSGGSYSYYPDSVKGRFTISRDNAKNTLYLQMLSLRSEDTAMYYCARRDNYFGSSFMDYWGQGSSVTVSSAKTTPPSVYPLAPGSAAQTNSMVTLGCLVKGYFPEPVTVTWNSGSLSSGVHTFPAVLQSDLYTLSSSVTVPSSTWPSQTVTCNVAHPASSTKVDKKIVPRDCGCKPCICTVPEVSSVFIFPPKPKDVLTITLTPKVTCVVVDISKDDPEVQFSWFVDDVEVHTAQTKPREEQFNSTFRSVSELPIMHQDWLNGKEFKCRVNSAAFPAPIEKTISKTKGRPKAPQVYTIPPPKEQMAKDKVSLTCMITNFFPEDITVEWQWNGQPAENYKNTQPIMDTDGSYFVYSKLNVQKSNWEAGNTFTCSVLHEGLHNHHTEKSLSHSPG
light: DIQMTQTSSSLSASLGDRVTISCRASQEITNYLNWYQQKPDGTIKLLIYYTSRIHSGVSSRFSGSGSGTDYSLTISNLEQEDIATYFCQQGHTIPLTFDTGTKLELKRADAAPTVSIFPPSSEQLTSGGASVVCFLNNFYPKDINVKWKIDGSERQNGVLNSWTDQDSKDSTYSMSSTLTLTKDEYERHNSYTCEATHKTSTSPIVKSFNRNEC
notes: assembled FR/CDR/constant
B6: Mutation 1-2 (antibody)
heavy: EVQMVESGGGLLKPGGSLKLSCAASGFTYSNYAMSWVRQTPEKRLEWVATISSGGSYSFYPDSVKGRFTISRDNAKNTLYLQMLSLRSEDTAMYYCARRDNYPGSTFMDYWGQGSSVTVSSAKTTPPSVYPLAPGSAAQTNSMVTLGCLVKGYFPEPVTVTWNSGSLSSGVHTFPAVLQSDLYTLSSSVTVPSSTWPSQTVTCNVAHPASSTKVDKKIVPRDCGCKPCICTVPEVSSVFIFPPKPKDVLTITLTPKVTCVVVDISKDDPEVQFSWFVDDVEVHTAQTKPREEQFNSTFRSVSELPIMHQDWLNGKEFKCRVNSAAFPAPIEKTISKTKGRPKAPQVYTIPPPKEQMAKDKVSLTCMITNFFPEDITVEWQWNGQPAENYKNTQPIMDTDGSYFVYSKLNVQKSNWEAGNTFTCSVLHEGLHNHHTEKSLSHSPG
light: DIQMTQTSSSLSASLGDRVTISCRASQEITNYLNWYQQKPDGTIKLLIYYTSRIHSGVSSRFSGSGSGTDYSLTISNLEQEDIATYFCQQGNTIPLTFDTGTKLELKRADAAPTVSIFPPSSEQLTSGGASVVCFLNNFYPKDINVKWKIDGSERQNGVLNSWTDQDSKDSTYSMSSTLTLTKDEYERHNSYTCEATHKTSTSPIVKSFNRNEC
notes: assembled FR/CDR/constant
B7: Mutation 1-7 (antibody)
heavy: EVQMVESGGGLLKPGGSLKLSCAASGFTFSNYAMSWVRQTPEKRLEWVATISSGGSYSYYPDSVKGRFTISRDNAKNTLYLQMLSLRSEDTAMYYCARRDNYFGSTFMDYWGQGSSVTVSSAKTTPPSVYPLAPGSAAQTNSMVTLGCLVKGYFPEPVTVTWNSGSLSSGVHTFPAVLQSDLYTLSSSVTVPSSTWPSQTVTCNVAHPASSTKVDKKIVPRDCGCKPCICTVPEVSSVFIFPPKPKDVLTITLTPKVTCVVVDISKDDPEVQFSWFVDDVEVHTAQTKPREEQFNSTFRSVSELPIMHQDWLNGKEFKCRVNSAAFPAPIEKTISKTKGRPKAPQVYTIPPPKEQMAKDKVSLTCMITNFFPEDITVEWQWNGQPAENYKNTQPIMDTDGSYFVYSKLNVQKSNWEAGNTFTCSVLHEGLHNHHTEKSLSHSPG
light: DIQMTQTSSSLSASLGDRVTISCRASQEITNYLNWYQQKPDGTIKLLIYYTSRIHSGVSSRFSGSGSGTDYSLTISNLEQEDIATYFCQQGHTIPLTFDTGTKLELKRADAAPTVSIFPPSSEQLTSGGASVVCFLNNFYPKDINVKWKIDGSERQNGVLNSWTDQDSKDSTYSMSSTLTLTKDEYERHNSYTCEATHKTSTSPIVKSFNRNEC
notes: assembled FR/CDR/constant
B8: Mutation 1-3 (antibody)
heavy: EVQMVESGGGLLKPGGSLKLSCAASGFTFSNYAMSWVRQTPEKRLEWVATISSGGSYSYYPDSVKGRFTISRDNAKNTLYLQMLSLRSEDTAMYYCARRDNYPGSSFMDYWGQGSSVTVSSAKTTPPSVYPLAPGSAAQTNSMVTLGCLVKGYFPEPVTVTWNSGSLSSGVHTFPAVLQSDLYTLSSSVTVPSSTWPSQTVTCNVAHPASSTKVDKKIVPRDCGCKPCICTVPEVSSVFIFPPKPKDVLTITLTPKVTCVVVDISKDDPEVQFSWFVDDVEVHTAQTKPREEQFNSTFRSVSELPIMHQDWLNGKEFKCRVNSAAFPAPIEKTISKTKGRPKAPQVYTIPPPKEQMAKDKVSLTCMITNFFPEDITVEWQWNGQPAENYKNTQPIMDTDGSYFVYSKLNVQKSNWEAGNTFTCSVLHEGLHNHHTEKSLSHSPG
light: DIQMTQTSSSLSASLGDRVTISCRASQDITNYLNWYQQKPDGTIKLLIYYTSRLHSGVSSRFSGSGSGTDYSLTISNLEQEDIATYFCQQGHTLPLTFDTGTKLELKRADAAPTVSIFPPSSEQLTSGGASVVCFLNNFYPKDINVKWKIDGSERQNGVLNSWTDQDSKDSTYSMSSTLTLTKDEYERHNSYTCEATHKTSTSPIVKSFNRNEC
notes: assembled FR/CDR/constant

What follows are binders tested against T1, CTNI quality control recombinant antigen (human, UniProt P19429 1-210, limits assumed) (assay: BLI, antibody on AMC sensor, cTnI in solution).
T1 construct: Recombinant antigen produced by the applicant; also called CTNI quality control recombinant protein (antigen produced by the company); cardiac troponin I
T1 sequence (P19429 whole entry): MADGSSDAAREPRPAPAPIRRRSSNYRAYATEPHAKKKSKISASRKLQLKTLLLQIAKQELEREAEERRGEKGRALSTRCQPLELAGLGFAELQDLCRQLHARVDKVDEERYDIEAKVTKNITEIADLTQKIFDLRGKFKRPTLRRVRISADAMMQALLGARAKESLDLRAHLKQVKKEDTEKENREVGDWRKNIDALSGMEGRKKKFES
Experimental: With an AMC sensor, the purified antibody was diluted to 10 μg/ml with PBST, and CTNI quality control recombinant protein (antigen produced by the company) was gradient diluted with PBST to 769.2 nmol/ml, 384.6 nmol/ml, 192.3 nmol/ml, 96.2 nmol/ml, 48.1 nmol/ml, 24 nmol/ml, 12 nmol/ml, and 0 nmol/ml.

Compared with B1, B2 is 2.8-fold higher in Kd: 3.47 nM for the first, 9.81 nM for the second.

Going from B3 to B4, the Kd rises from 0.83 nM to 7.1 nM (8.6-fold).

First: B5
Second: B6
The Kd of the first is 2.8-fold higher: 6.81 nM for the first, 2.43 nM for the second.

B7 and B8 are within 1.5-fold of each other in Kd: 4.71 nM for the first, 4.58 nM for the second.

Compared with B1, B2 is 2.2-fold higher in koff: 0.000124 s⁻¹ for the first, 0.000275 s⁻¹ for the second.

Going from B3 to B4, the koff falls from 0.000807 s⁻¹ to 0.00053 s⁻¹ (1.5-fold).

First: B5
Second: B6
The koff of the first is 5.2-fold higher: 0.000667 s⁻¹ for the first, 0.000129 s⁻¹ for the second.

First: B7
Second: B8
The koff of the first is 3.2-fold higher: 0.000186 s⁻¹ for the first, 5.73e-05 s⁻¹ for the second.

B1 and B2 are within 1.5-fold of each other in kon: 35800 M⁻¹ s⁻¹ for the first, 28000 M⁻¹ s⁻¹ for the second.

First: B3
Second: B4
The kon of the first is 13-fold higher: 972000 M⁻¹ s⁻¹ for the first, 74600 M⁻¹ s⁻¹ for the second.

First: B5
Second: B6
The kon of the first is 1.8-fold higher: 98000 M⁻¹ s⁻¹ for the first, 53200 M⁻¹ s⁻¹ for the second.

Going from B7 to B8, the kon falls from 39400 M⁻¹ s⁻¹ to 12500 M⁻¹ s⁻¹ (3.2-fold).
